For one series, the target named is T1, SLFN11 (Homo sapiens, UniProt Q7Z7L1, S753D).
T1 construct: S753D monomer, 104 kDa, model residues 7-897
T1 sequence (Q7Z7L1 1-901 S753D): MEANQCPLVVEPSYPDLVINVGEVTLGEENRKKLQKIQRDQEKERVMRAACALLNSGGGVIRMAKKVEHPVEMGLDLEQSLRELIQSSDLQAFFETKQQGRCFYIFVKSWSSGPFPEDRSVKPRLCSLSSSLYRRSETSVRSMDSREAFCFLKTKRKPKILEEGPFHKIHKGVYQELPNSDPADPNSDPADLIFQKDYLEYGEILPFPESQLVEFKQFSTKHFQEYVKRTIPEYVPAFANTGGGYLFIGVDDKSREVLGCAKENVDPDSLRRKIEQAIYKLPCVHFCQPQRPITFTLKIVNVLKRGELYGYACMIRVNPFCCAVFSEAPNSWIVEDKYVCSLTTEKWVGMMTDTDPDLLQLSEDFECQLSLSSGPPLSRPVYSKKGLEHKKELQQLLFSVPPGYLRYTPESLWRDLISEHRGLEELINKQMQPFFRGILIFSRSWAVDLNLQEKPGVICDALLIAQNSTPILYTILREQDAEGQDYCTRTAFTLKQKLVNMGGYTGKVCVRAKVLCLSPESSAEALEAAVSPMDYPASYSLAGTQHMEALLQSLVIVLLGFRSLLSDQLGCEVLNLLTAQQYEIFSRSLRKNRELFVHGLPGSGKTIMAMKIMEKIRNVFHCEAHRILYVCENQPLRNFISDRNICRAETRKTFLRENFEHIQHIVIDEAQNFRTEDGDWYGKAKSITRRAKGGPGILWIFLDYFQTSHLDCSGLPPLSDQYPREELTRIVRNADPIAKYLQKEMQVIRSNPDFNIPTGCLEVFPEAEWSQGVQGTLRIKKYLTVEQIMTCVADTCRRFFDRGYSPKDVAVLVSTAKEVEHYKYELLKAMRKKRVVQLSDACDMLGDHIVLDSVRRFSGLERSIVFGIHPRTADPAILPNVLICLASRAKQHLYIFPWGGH
Briefly: nanoDSF thermal shift (Tycho NT.[…]). The format is binding. To be noted: 1 mM nucleotide, 300 nM protein, 25 mM Tris pH 7.5, 60 mM NaCl, 2 mM MgCl2. A general note: DSF heats the sample and reads unfolding from a dye or from intrinsic fluorescence.

Series [1] concerns the molecule itself. Briefly: mass photometry; 50 nM SLFN11 in 25 mM Tris pH 7.5, 2 mM MgCl2, 1 mM DTT with variable concentrations of NaCl (80 mM NaCl in Fig. 4d, e); dimer to monomers.

Take `Nc1ncnc2c1ncn2[C@@H]1O[C@H](COP(=O)(O)OP(=O)(O)OP(=O)(O)O)[C@@H](O)[C@H]1O` [ATP]: the inflection temperature shift result at SLFN11 is “ATP and ATPγS caused a large increase in the inflection temperatures of SLFN11^S753D”.

B1: Human Schlafen 11 (SLFN11), wild type (enzyme)
chain: MEANQCPLVVEPSYPDLVINVGEVTLGEENRKKLQKIQRDQEKERVMRAACALLNSGGGVIRMAKKVEHPVEMGLDLEQSLRELIQSSDLQAFFETKQQGRCFYIFVKSWSSGPFPEDRSVKPRLCSLSSSLYRRSETSVRSMDSREAFCFLKTKRKPKILEEGPFHKIHKGVYQELPNSDPADPNSDPADLIFQKDYLEYGEILPFPESQLVEFKQFSTKHFQEYVKRTIPEYVPAFANTGGGYLFIGVDDKSREVLGCAKENVDPDSLRRKIEQAIYKLPCVHFCQPQRPITFTLKIVNVLKRGELYGYACMIRVNPFCCAVFSEAPNSWIVEDKYVCSLTTEKWVGMMTDTDPDLLQLSEDFECQLSLSSGPPLSRPVYSKKGLEHKKELQQLLFSVPPGYLRYTPESLWRDLISEHRGLEELINKQMQPFFRGILIFSRSWAVDLNLQEKPGVICDALLIAQNSTPILYTILREQDAEGQDYCTRTAFTLKQKLVNMGGYTGKVCVRAKVLCLSPESSAEALEAAVSPMDYPASYSLAGTQHMEALLQSLVIVLLGFRSLLSDQLGCEVLNLLTAQQYEIFSRSLRKNRELFVHGLPGSGKTIMAMKIMEKIRNVFHCEAHRILYVCENQPLRNFISDRNICRAETRKTFLRENFEHIQHIVIDEAQNFRTEDGDWYGKAKSITRRAKGGPGILWIFLDYFQTSHLDCSGLPPLSDQYPREELTRIVRNADPIAKYLQKEMQVIRSNPSFNIPTGCLEVFPEAEWSQGVQGTLRIKKYLTVEQIMTCVADTCRRFFDRGYSPKDVAVLVSTAKEVEHYKYELLKAMRKKRVVQLSDACDMLGDHIVLDSVRRFSGLERSIVFGIHPRTADPAILPNVLICLASRAKQHLYIFPWGGH
notes: Schlafen 11 (SLFN11), human; N-terminal nuclease domain, linker domain and C-terminal helicase domain; also called SLFN11^wt
With B1, the “stoichiometry N” value in series [1] was 2.

B2: SLFN11 phosphomimetic mutant S219D (enzyme, human)
chain: MEANQCPLVVEPSYPDLVINVGEVTLGEENRKKLQKIQRDQEKERVMRAACALLNSGGGVIRMAKKVEHPVEMGLDLEQSLRELIQSSDLQAFFETKQQGRCFYIFVKSWSSGPFPEDRSVKPRLCSLSSSLYRRSETSVRSMDSREAFCFLKTKRKPKILEEGPFHKIHKGVYQELPNSDPADPNSDPADLIFQKDYLEYGEILPFPESQLVEFKQFDTKHFQEYVKRTIPEYVPAFANTGGGYLFIGVDDKSREVLGCAKENVDPDSLRRKIEQAIYKLPCVHFCQPQRPITFTLKIVNVLKRGELYGYACMIRVNPFCCAVFSEAPNSWIVEDKYVCSLTTEKWVGMMTDTDPDLLQLSEDFECQLSLSSGPPLSRPVYSKKGLEHKKELQQLLFSVPPGYLRYTPESLWRDLISEHRGLEELINKQMQPFFRGILIFSRSWAVDLNLQEKPGVICDALLIAQNSTPILYTILREQDAEGQDYCTRTAFTLKQKLVNMGGYTGKVCVRAKVLCLSPESSAEALEAAVSPMDYPASYSLAGTQHMEALLQSLVIVLLGFRSLLSDQLGCEVLNLLTAQQYEIFSRSLRKNRELFVHGLPGSGKTIMAMKIMEKIRNVFHCEAHRILYVCENQPLRNFISDRNICRAETRKTFLRENFEHIQHIVIDEAQNFRTEDGDWYGKAKSITRRAKGGPGILWIFLDYFQTSHLDCSGLPPLSDQYPREELTRIVRNADPIAKYLQKEMQVIRSNPSFNIPTGCLEVFPEAEWSQGVQGTLRIKKYLTVEQIMTCVADTCRRFFDRGYSPKDVAVLVSTAKEVEHYKYELLKAMRKKRVVQLSDACDMLGDHIVLDSVRRFSGLERSIVFGIHPRTADPAILPNVLICLASRAKQHLYIFPWGGH
notes: Schlafen 11 (SLFN11), human, with the phosphomimetic mutation S219D in the nuclease domain; Made by quick change PCR from the wild-type construct; also called SLFN11^S219D
Consider B2, for which the “stoichiometry N” value in series [1] was found to be 2.

B3: SLFN11 phosphomimetic mutant T230D (enzyme, human)
chain: MEANQCPLVVEPSYPDLVINVGEVTLGEENRKKLQKIQRDQEKERVMRAACALLNSGGGVIRMAKKVEHPVEMGLDLEQSLRELIQSSDLQAFFETKQQGRCFYIFVKSWSSGPFPEDRSVKPRLCSLSSSLYRRSETSVRSMDSREAFCFLKTKRKPKILEEGPFHKIHKGVYQELPNSDPADPNSDPADLIFQKDYLEYGEILPFPESQLVEFKQFSTKHFQEYVKRDIPEYVPAFANTGGGYLFIGVDDKSREVLGCAKENVDPDSLRRKIEQAIYKLPCVHFCQPQRPITFTLKIVNVLKRGELYGYACMIRVNPFCCAVFSEAPNSWIVEDKYVCSLTTEKWVGMMTDTDPDLLQLSEDFECQLSLSSGPPLSRPVYSKKGLEHKKELQQLLFSVPPGYLRYTPESLWRDLISEHRGLEELINKQMQPFFRGILIFSRSWAVDLNLQEKPGVICDALLIAQNSTPILYTILREQDAEGQDYCTRTAFTLKQKLVNMGGYTGKVCVRAKVLCLSPESSAEALEAAVSPMDYPASYSLAGTQHMEALLQSLVIVLLGFRSLLSDQLGCEVLNLLTAQQYEIFSRSLRKNRELFVHGLPGSGKTIMAMKIMEKIRNVFHCEAHRILYVCENQPLRNFISDRNICRAETRKTFLRENFEHIQHIVIDEAQNFRTEDGDWYGKAKSITRRAKGGPGILWIFLDYFQTSHLDCSGLPPLSDQYPREELTRIVRNADPIAKYLQKEMQVIRSNPSFNIPTGCLEVFPEAEWSQGVQGTLRIKKYLTVEQIMTCVADTCRRFFDRGYSPKDVAVLVSTAKEVEHYKYELLKAMRKKRVVQLSDACDMLGDHIVLDSVRRFSGLERSIVFGIHPRTADPAILPNVLICLASRAKQHLYIFPWGGH
notes: Schlafen 11 (SLFN11), human, with the phosphomimetic mutation T230D in the nuclease domain; Made by quick change PCR from the wild-type construct; also called SLFN11^T230D
For the molecule B3, the “stoichiometry N” value in series [1] is 2.

For orientation: stoichiometry N means the number of molecules, sites or subunits per partner or assembly.

These data come from article PMC11615386, “Phosphorylation-mediated conformational change regulates human SLFN11” (Nature Communications, 2024).
